Measured values reported in paper PMC4349727, “Redox-dependent chaperone/peroxidase function of 2-Cys-Prx from the cyanobacterium Anabaena PCC7120: role in oxidative stress tolerance” (BMC Plant Biology, 2015).

Experiments:
[1] = biological target: Alr4641, endogenous in wild-type Anabaena PCC7120 (Anabaena PCC7120 (endogenous)); test: non-reducing SDS-PAGE with Western blot; cell free extracts of Anabaena (wild type after MV, H2O2, t-Bx or γ-radiation and recovery; An4641+; AnC56S+) on non-reducing SDS-PAGE, probed with Alr4641 antiserum; shows the disulfide dimer
[2] = biological target: T1, Alr4641 (2-Cys-Prx) (Nostoc sp. PCC 7120 = FACHB-418, UniProt A0ACD7RYC4); test: NTRC-dependent peroxidase assay, NADPH oxidation at […] nm; type: biochemical; settings: 100 uM peroxide; NTRC of Anabaena PCC7120 as reductant with NADPH
T1 construct: full length, 203 residues, 23 kD, N-terminal His-tag (pET16b), expressed in E. coli BL21pLysS; decamer/dodecamer
T1 sequence (A0ACD7RYC4 1-203): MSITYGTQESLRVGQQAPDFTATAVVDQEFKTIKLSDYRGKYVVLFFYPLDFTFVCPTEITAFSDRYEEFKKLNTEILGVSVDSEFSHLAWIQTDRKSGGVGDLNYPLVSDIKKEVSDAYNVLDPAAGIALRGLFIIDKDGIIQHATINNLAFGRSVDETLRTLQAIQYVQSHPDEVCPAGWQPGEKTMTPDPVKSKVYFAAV

[3] = biological target: Alr4641 over-expressed in Anabaena PCC7120 (strain An4641+) (Anabaena PCC7120); test: non-reducing SDS-PAGE with Western blot; cell free extracts of Anabaena (wild type after MV, H2O2, t-Bx or γ-radiation and recovery; An4641+; AnC56S+) on non-reducing SDS-PAGE, probed with Alr4641 antiserum; shows the disulfide dimer
[4] = biological target: Alr4641 (typical 2-Cys-Prx of Anabaena PCC7120), His-tagged, wild type (Anabaena PCC7120); test: SDS-PAGE under reducing or non-reducing conditions; 12% SDS-PAGE of purified proteins with or without DTT (10 mM); shows the inter-subunit disulfide dimer
[5] = biological target: Alr4641 (typical 2-Cys-Prx of Anabaena PCC7120), His-tagged, wild type (Anabaena PCC7120); test: SPR; Autolab Esprit; about 250 response units of Alr4641 immobilised on bare gold chip by EDC-NHS; NTRC injected at 4.33, 8.66, 10.39 and 12.99 μM, 33.3 μL/min, 300 s; 20°C; 10 mM HEPES, 100 mM NaCl, pH 7.5; equilibrium analysis

Alr4641, endogenous in wild-type Anabaena PCC7120 (enzyme)
stoichiometry N [1]: 2

CC(C)(C)OO [t-Bx, t-butyl hydroperoxide]
NTRC-dependent peroxidase assay, NADPH oxidation at 340 nm [2]: best activity was observed with H2O2 followed by t-butyl hydroperoxide and cumeme hydroperoxide

CC(C)(OO)c1ccccc1 [Cux, cumeme hydroperoxide]
NTRC-dependent peroxidase assay, NADPH oxidation at 340 nm [2]: best activity was observed with H2O2 followed by t-butyl hydroperoxide and cumeme hydroperoxide

Alr4641 over-expressed in Anabaena PCC7120 (strain An4641+) (enzyme)
stoichiometry N [3]: 2

Alr4641 (typical 2-Cys-Prx of Anabaena PCC7120), His-tagged, wild type (enzyme)
stoichiometry N [4]: 2

NADPH-dependent thioredoxin reductase (NTRC) from Anabaena PCC7120, His-tagged (enzyme)
Kd [5]: 1040 nM
